Among the data in a protein production outcome set (Wang et al. 2014) are protein production values, retold here.

The nature of this data set: label from the status in PepcDB records.
Consider “MVEPDRVFFVRVMREWISRFTGKIIENFEIHLSQPMGFAGDIMSLTEFATSRQVKNLVLDFSDPIQRNLSQAQQIIRDGLLRCRYPQKNELDVLQDCDDPMALHVSMKTRHLVMKTNMHANDFVGISIFLNSCPELESLTFDLVTSSRFVRAPSPLVIDPVSHWLTSKSYECLEKTLKVVKITKFRGSSNELHMLQYLLRTGCVMERVDLYEAEGLNHNQKRWVLAGVEEVQQNFKRASRHLRITLHNA”, for which the protein production entry is “not failed”.

Consider “MVERTAVFPAGRHSLYAEHRYSAAIRSGDLLFVSGQVGSREDGTPEPDFQQQVRLAFDNLHATLAAAGCTFDDIIDVTSFHTDPENQFEDIMTVKNEIFSAPPYPNWTAVGVTWLAGFDFEIKVIARIPEQ”, for which the protein production result is given as “not failed”.

Regarding “MVEVSQFKDAMAQLASAVHIVTTSGETGQHGFTASAVCSVTDSPPTLLVCINSNARAYEHFVKNRVLMVNTLTAEQSSLSNIFASPLSQEERFSNASWTTLTTGSPMLQDALINFDCEITEIKHVGTHDILICKIVDIHQSNAKNALVYRNRVYHSV”, the protein production entry is reported as “not failed”.

“MVFLVPFDGSPLADAALNRAVTYAKALDEDVVAVAFIPTGADYAERRRRVDPTEDFAAETAADDLRRKIEEATDDSELRYDDVSAHSTSELSTTIRQTARDVDANVVFLGSDDTEDIVVPIGEVTDGEDYDVHIVRRT”: the protein production result is “failed”.

Regarding “MVGFKPTDVPPTAAVKFIGAGTAACIADLFTFPLDTAKVRLQIQGESKAVHMKTASYKGVFGTISTMVKMEGPKSLYNGLAAGLQRQMSFASVRIGLYDSVKQFYTKGSEHAGIGSRLAAGCTTGAMAVAVAQPTDVVKVRFQAQANSSANRRYKGTMDAYRTIAREEGMRGLWKGTVPNITRNAIVNCTELVTYDLIKDSILKANIMTDNLPCHFTSAFGAGFCTTVIASPVDVVKTRYMNSAKGQYTSALNCALTMFRKEGPRAFYKGFMPSFLRLGSWNVVMFVTYEQLKRAMMSAQRSREAPF”, the protein production result is “failed”.

With “MVGGVEELSIEQLASSISTYKEQLEQNFVCGLEFRIGEEKLNVRQLLSEDPRNSEYADMEKELKEVIALTEEVLATAKQNEISLSDAGVSAEATPGSPDLEGAWEKTGLRNDPIHEGKFPVGTKVQAVFSDDGEWYDATIEAHTANGYFVAYDEWGNKEEVDPDNVRPIEQNAIVEAERLAQATKNALKRKIEKAASSDYQTKTLPAKLKIDPNDPEDVKIAKRKKIHAFKSKARFEQLEVVQNKKQNDWQQFQTTKAKTKKVGFFTGRKKESIFKSPEDPFGKVGVTGSGKGLTDFQKREKHLHLKSGNAEGTDE”, the protein production entry is “failed”.

Regarding “MVGISFVFDKISNGISSYKSIKGIEQAHKSKKIASDLREYGYKLLDCRKLEAAKDAFEEALRFDPTNPEIQMGLFKSAVFQPILTKNPTYYDAEIALKKIETILKKNPNDRHAYYFMGEIYRDSDPKKASNYYKKVISLDPKSYLTGLAYNSLAYIAATEKDNDLAFYYMKKAANLCEMNPTVLNNLSYQHLIRGQYEITIEKLTRLIKHDPYKIIVFWNIINSLRMIGKFQEAYIYNHMLIECIEDETTSYHAANLGAFFFQTDPSGDGVFFKEISGKKFYSYCSMALTCYVLDLTEEANMYLEKAQKLDCFSKASAIKFLYYNIECIQKNNVKLIYKLDDIKERLIKLDLFTNVSITVARNETQYINMAKV”, the protein production result was “failed”.

As for “MVGKMNEWELALKNKDCKKLLELFDDYFDEVSEDKLEEELKRVGEVAVECEDFDLIHEIAHIYEHLGEAEKGIDLYKRIVEKRKGRNTEDYAEALYYLADAYDHFGMPEEALKTYEELLELEKRIGNKREIGLTLANLAIIKDELGNVEEAIKLMEEARKIFEELKDENNYLISLIDLAHFKYELGEYEEAMKLIREVLRNPVDKEIEVNARLVESEIYAGERKYKEAAISLRNALQRSEDDEELFSLVFDSLTEFLEGLFNESRYRELVEVSPLFAELFEDDTKYFFNAIKGLAEWRLGNEKAREEFEENYKNIQNEELKALLDEWRRPKLSLGLNL”, the protein production entry is on record as “failed”.

With “MVGTLYDKMYENFVEEVDAVDNGISQWAEGEPRYALTTTLSARVARLNPTWNHPDQDTEAGFKRAMDLVQEEFLQRLDFYQHSWLPARALVEEALAQRFQVDPSGEIVELAKGACPWKEHLYHLESGLSPPVAIFFVIYTDQAGQWRIQCVPKEPHSFQSRLPLPEPWRGLRDEALDQVSGIPGCIFVHASGFIGGHRTREGALSMARATLAQRSYLPQIS”, the protein production entry is “failed”.

On to “MVHHDGTLQALITAYQKTPAFTDLAEATRKGYIRHIRQIEADFGDMPVQALADPRVRGEFLDWRDRLAQKSKRSADYAFSVLARILSWAHDRRKIPVNPCEKPGRLEHHHHHH”, for which the protein production result was “failed”.
